The source of these data is the DeepSol protein solubility set.

A short description of the series: soluble on expression in E. coli; label from the status in PepcDB or PDB records.
For “MQVNEEGFAIDDKEYAMKTELKFASKHSSRLKIERNVMESYSKCDAQCKEHFSELIDFGQSPVWKWIVMTIVGPSLEELKMKYKPSDIPPSTILQCGLQTMKAIHDFHQIGFLHRDIKPANYCIGYGSKSETIYVLDFGLARKYRLPNGQVRPPRPKTKMIGTPRYCSRASHRCEELGRRDDYESWFFMFIDLVDTTLIDWKGLTRPDAYAKKQELFTKLKTYEKHPMFKVISIYLDNLVYDSEVKFGVLREAITDYARGCKLTLKEPLVWFNQSTCPSPSTAPGTGASRMATNIDLKSIASDRNEENSLDRSKTGTLSFNNSKNKKPSRY”, the “soluble on expression in E. coli” value is “not soluble”. With “MGSDKIHHHHHHMIRANRHKRVIAVCGKGGVGKTAFTAMLTRSLLESQKAGDLLVIDADPAMGLPNTLGIQVEKTIGHVRDLIINTARAGIGEDRVDLSSRLDYLVLETLYESDDYAFLAMGRTDSQGCFCSVNDLLKKSIRILSERFDTIVIDGEAGLEQMNRQVMNMVDLLIILSDTSTRGLQTVEHITKMVTEDHVIDCTQLGVVFNRVINNELLLTQAAERIGIEVFGMVPQDQSIVHYDLIGQPLTELPADSLALSAIRDFVANHIVQLDCR” the entry was “not soluble”; with “SLEGQLEAGEPKEGTHPEDPCPGAGAAMEKTPAAAEVPREDGNAEEMPSLQQQITSLHQELGRQQSLWADIHRKLQSHMDALRKQNRELREELRGLQRQQWEAGKKPAASPHAGRESHTLALEPAFGKISPLSADEETTPKYAGRKSQSATLLGQRWSSNHLAPPKPMSLKTERINSGKTPPQEDREKSPPGRRQDRSPAPTGRPTPGAERREVSEDGKIMHPSSRSPQNSGGRKSPVQASQATTLQEQTAAARGADRSSSVLGSSEGGFLSRVQADEFASSSPDSAERQNLPVNPPSSLEIAQAMDTKMKKEEVQEEKRHPKGKADDCRRSGFPSEFPGALHAAPSRQDMGP”, “soluble”. To “GLIDAHGHVIGYGHSLLRVDLVNATSELDAVNRTISYAKDNPSMSWILGRGWNQVQWSNNSYPNAKSLDEAFPNKPVWLRRVDGHAGWANSKAMALAGITSASKAPVGGDIIKDKNGLPTGIFIDNAMTLITASITPPSPMEDKIALKRAMHSLASLGLTSVHDAGIEQKDIALYKTLASEGNMTIRINGMLYLPSTNWQQQLEQGPYRTEDEMFAVNSVKIQADGALGSRGASLINDYSDHSGHKGLLLHDKKSLQHYIDFAMNAGFQVNTHAIGDNANKLILDLYQQAIQKSQTKALRHRIEHAQVLRLEDISRFSSLNVIASMQATHATSDKNMAVTRLGGKRILGAYAWRKLLDSNTIIAAGSDFPVESPNPFFGLHASITRQDHKDLPIGGWYADQKMTRTEALRSFTIDAAYAGHQEKLIGSLEAGKKADFILLADDLLTMPESTIWQSQVSQTWVAGKKVFSAIDVPSVE” belongs “not soluble”.

As to “MSLTRQSLQQAAESRRSIYSLNKNLPVGKDEVVQIVEHAVLHTPSSFNSQSARVVVLFGEEHDKVWQFVEDALRAVVPADSFEPTAQKLNLFKAGAATILFYEDQNVVKGLQEQFPAYAANFPVWADQANAMVQYAVWTTLAAVGVGANLQHYNPLPDAAIAKAWNIPENWLLRAQMVIGGIEGAAGEKTFEPVAERLKVFGAEGGSHHHHHH”, the “soluble on expression in E. coli” value is listed as “soluble”. Consider “MGSDKIHHHHHHMVAIKNFSIKIKDKEPVFTLGEKLTQEQLDFFETHGYIHFKNFLNPETVPAVIKALEDVQEQWIAENREKVNGVPIKYGVDLDGKKIVQRFAFASLFSNVLHELLKDPRLKALYPLLQAKDERIGEFEKDGLVVNHYINSDASSFTKMGWHTDCLRDVFYGKKIMPMLNVGIHLDNYDPKNGGLRIIPGTHKQDLLNLLFRKKYYVSHKPDPDEIGFNITAGDLTVHDGRSWHRVERSPITGEASRRRVMYIPFIGGEYQPKDENSSTQLYQRLSKFVR”, for which the “soluble on expression in E. coli” value was “not soluble”. Regarding “MCECYQFYRMRITQSAQICLSVIKKSQKTGFGPNRLQRKGTHFVGTEPPVLKYHILQDKKPNEEYGLQGTNHELPGTGKVHSKLPTKVHMKKDKVYAWCSCGYSGSQPLCDGSHNSIRIPDLKLKPVRFIPDKDMTVWLCNCKQTNNRPFCDGSHKTVTDEDKKAGLFD”, the “soluble on expression in E. coli” value is reported as “not soluble”.
